According to patent publication US20140271675A1 (Eli Lilly, published 2014):

Legend:
[1] = target: hVEGFR1-Fc (R&D 321-fl 050/cf) (human) (UniProt P17948); assay: competition ELISA, coated hVEGFR1-Fc, competitor biotin-hPLGF1 4 nM; control Ron antibody 5.0000 µg/ml
[2] = target: hVEGFR1-Fc (R&D 321-fl 050/cf) (human) (UniProt P17948); assay: competition ELISA, coated hVEGFR1-Fc, competitor biotin-hPLGF1 2 nM; control Ron antibody 0.023 µg/ml
[3] = target: hVEGFR1-Fc (R&D 321-fl 050/cf) (human) (UniProt P17948); assay: competition ELISA, coated hVEGFR1-Fc, competitor biotin-hVEGFA-165 2 nM; control Ron antibody 5.0000 µg/ml
[4] = target: hVEGFR1-Fc (R&D 321-fl 050/cf) (human) (UniProt P17948); assay: competition ELISA, coated hVEGFR1-Fc, competitor biotin-hPLGF1 2 nM; control Ron antibody 0.617 µg/ml
[5] = target: hVEGFR1-Fc (R&D 321-fl 050/cf) (human) (UniProt P17948); assay: competition ELISA, coated hVEGFR1-Fc, competitor biotin-hPLGF1 4 nM; control Ron antibody 0.1852 µg/ml
[6] = target: hVEGFR1-Fc (R&D 321-fl 050/cf) (human) (UniProt P17948); assay: competition ELISA, coated hVEGFR1-Fc, competitor biotin-hVEGFA-165 2 nM; control Ron antibody 5.556 µg/ml
[7] = target: hVEGFR1-Fc (R&D 321-fl 050/cf) (human) (UniProt P17948); assay: competition ELISA, coated hVEGFR1-Fc, competitor biotin-hVEGFA-165 2 nM; control Ron antibody 0.0617 µg/ml
[8] = target: hVEGFR1-Fc (R&D 321-fl 050/cf) (human) (UniProt P17948); assay: competition ELISA, coated hVEGFR1-Fc, competitor biotin-hVEGFA-165 2 nM; control Ron antibody 50.000 µg/ml
[9] = target: hVEGFR1-Fc (R&D 321-fl 050/cf) (human) (UniProt P17948); assay: competition ELISA, coated hVEGFR1-Fc, competitor biotin-hPLGF1 4 nM; control Ron antibody 0.0069 µg/ml
[10] = target: hVEGFR1-Fc (R&D 321-fl 050/cf) (human) (UniProt P17948); assay: competition ELISA, coated hVEGFR1-Fc, competitor biotin-hVEGFA-165 2 nM; control Ron antibody 0.069 µg/ml
[11] = target: hVEGFR1-Fc (R&D 321-fl 050/cf) (human) (UniProt P17948); assay: competition ELISA, coated hVEGFR1-Fc, competitor biotin-hVEGFA-165 2 nM; control Ron antibody 16.667 µg/ml
[12] = target: hVEGFR1-Fc (R&D 321-fl 050/cf) (human) (UniProt P17948); assay: competition ELISA, coated hVEGFR1-Fc, competitor biotin-hPLGF1 4 nM; control Ron antibody 0.5556 µg/ml
[13] = target: hVEGFR1-Fc (R&D 321-fl 050/cf) (human) (UniProt P17948); assay: competition ELISA, coated hVEGFR1-Fc, competitor biotin-hVEGFA-165 2 nM; control Ron antibody 1.852 µg/ml
[14] = target: hVEGFR1-Fc (R&D 321-fl 050/cf) (human) (UniProt P17948); assay: competition ELISA, coated hVEGFR1-Fc, competitor biotin-hPLGF1 4 nM; control Ron antibody 0.0023 µg/ml
[15] = target: hVEGFR1-Fc (R&D 321-fl 050/cf) (human) (UniProt P17948); assay: competition ELISA, coated hVEGFR1-Fc, competitor biotin-hPLGF1 4 nM; control Ron antibody 1.6667 µg/ml
[16] = target: hVEGFR1-Fc (R&D 321-fl 050/cf) (human) (UniProt P17948); assay: competition ELISA, coated hVEGFR1-Fc, competitor biotin-hVEGFA-165 2 nM; control Ron antibody 0.0206 µg/ml
[17] = target: hVEGFR1-Fc (R&D 321-fl 050/cf) (human) (UniProt P17948); assay: competition ELISA, coated hVEGFR1-Fc, competitor biotin-hPLGF1 2 nM; control Ron antibody 0.206 µg/ml
[18] = target: hVEGFR1-Fc (R&D 321-fl 050/cf) (human) (UniProt P17948); assay: competition ELISA, coated hVEGFR1-Fc, competitor biotin-hPLGF1 2 nM; control Ron antibody 0.069 µg/ml
[19] = target: hVEGFR1-Fc (R&D 321-fl 050/cf) (human) (UniProt P17948); assay: competition ELISA, coated hVEGFR1-Fc, competitor biotin-hVEGFA-165 2 nM; control Ron antibody 0.206 µg/ml
[20] = target: hVEGFR1-Fc (R&D 321-fl 050/cf) (human) (UniProt P17948); assay: competition ELISA, coated hVEGFR1-Fc, competitor biotin-hPLGF1 2 nM; control Ron antibody 1.852 µg/ml
[21] = target: hVEGFR1-Fc (R&D 321-fl 050/cf) (human) (UniProt P17948); assay: competition ELISA, coated hVEGFR1-Fc, competitor biotin-hPLGF1 4 nM; control Ron antibody 0.0206 µg/ml
[22] = target: hVEGFR1-Fc (R&D 321-fl 050/cf) (human) (UniProt P17948); assay: competition ELISA, coated hVEGFR1-Fc, competitor biotin-hVEGFA-165 2 nM; control Ron antibody 0.1852 µg/ml
[23] = target: hVEGFR1-Fc (R&D 321-fl 050/cf) (human) (UniProt P17948); assay: competition ELISA, coated hVEGFR1-Fc, competitor biotin-hPLGF1 2 nM; control Ron antibody 16.667 µg/ml
[24] = target: hVEGFR1-Fc (R&D 321-fl 050/cf) (human) (UniProt P17948); assay: competition ELISA, coated hVEGFR1-Fc, competitor biotin-hVEGFA-165 2 nM; control Ron antibody 1.6667 µg/ml

Chain of hVEGFR1-Fc (R&D 321-fl 050/cf) (human) (P17948 27-758): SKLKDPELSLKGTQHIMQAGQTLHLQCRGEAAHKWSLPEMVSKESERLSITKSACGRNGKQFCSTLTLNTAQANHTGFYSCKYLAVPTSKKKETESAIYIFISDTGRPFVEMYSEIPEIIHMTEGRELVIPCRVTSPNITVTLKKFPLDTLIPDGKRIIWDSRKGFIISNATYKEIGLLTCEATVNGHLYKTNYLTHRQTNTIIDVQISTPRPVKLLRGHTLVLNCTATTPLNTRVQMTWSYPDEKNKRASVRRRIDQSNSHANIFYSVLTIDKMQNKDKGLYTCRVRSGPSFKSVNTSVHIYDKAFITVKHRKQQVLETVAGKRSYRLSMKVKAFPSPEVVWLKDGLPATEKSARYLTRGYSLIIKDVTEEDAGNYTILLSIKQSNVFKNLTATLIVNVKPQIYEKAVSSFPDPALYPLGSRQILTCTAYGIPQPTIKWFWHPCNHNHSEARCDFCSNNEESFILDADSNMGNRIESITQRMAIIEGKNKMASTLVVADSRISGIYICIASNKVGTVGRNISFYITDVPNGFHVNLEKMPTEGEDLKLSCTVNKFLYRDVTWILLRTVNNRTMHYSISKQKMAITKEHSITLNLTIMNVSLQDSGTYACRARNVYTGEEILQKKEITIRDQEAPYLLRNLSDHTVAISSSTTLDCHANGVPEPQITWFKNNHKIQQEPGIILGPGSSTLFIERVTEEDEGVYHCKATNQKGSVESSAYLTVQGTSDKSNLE

control Ron antibody (R&D MAB691) showed an OD560 (bound biotinylated PlGF) [1] of 0.407 OD, an OD560 (bound biotinylated PlGF) [2] of 0.296 OD and an OD560 (bound biotinylated VEGF-A) [3] of 1.51 OD. It also gave an OD560 (bound biotinylated PlGF) [4] of 0.295 OD, an OD560 (bound biotinylated PlGF) [5] of 0.405 OD and an OD560 (bound biotinylated VEGF-A) [6] of 0.535 OD. It also gave an OD560 (bound biotinylated VEGF-A) [7] of 1.51 OD, an OD560 (bound biotinylated VEGF-A) [8] of 0.515 OD and an OD560 (bound biotinylated PlGF) [9] of 0.37 OD. The OD560 (bound biotinylated VEGF-A) [10] was 0.519 OD, the OD560 (bound biotinylated VEGF-A) [11] was 0.566 OD and the OD560 (bound biotinylated PlGF) [12] was 0.436 OD. For the same substance, the OD560 (bound biotinylated VEGF-A) [13] was 0.53 OD, the OD560 (bound biotinylated PlGF) [14] was 0.359 OD and the OD560 (bound biotinylated PlGF) [15] was 0.432 OD. The OD560 (bound biotinylated VEGF-A) [16] was 1.62 OD, the OD560 (bound biotinylated PlGF) [17] was 0.315 OD and the OD560 (bound biotinylated PlGF) [18] was 0.283 OD. The OD560 (bound biotinylated VEGF-A) [19] was 0.554 OD, the OD560 (bound biotinylated PlGF) [20] was 0.3 OD and the OD560 (bound biotinylated PlGF) [21] was 0.389 OD. It also gave an OD560 (bound biotinylated VEGF-A) [22] of 1.46 OD, an OD560 (bound biotinylated PlGF) [23] of 0.304 OD and an OD560 (bound biotinylated VEGF-A) [24] of 1.42 OD.
